# According to the RNAGym collection of RNA variant scans (doi:10.7554/elife.80360):
# B1: Hammerhead Ribozyme (parent)
# chain: ACCGGAUGUGCUUUCCGGUCUGAUGAGUCCGUGAGGACGAAACAG
# Variants of: B1
# Test: self-cleavage, relative activity (ratio to wild type); higher = more cleavage; co-transcriptional
row,Variant,self-cleavage
1,ACCGGAUGUGCUUUCCGGUCUGAUGAGUCCGUUAGGACGGAACAG,0.4
2,ACCGGAUGUGCUUUCCGGUCUGAUGAGUCCGUUAGGACGUAACAG,0.391
3,ACCGGAUGUGCUUUCCGGUCUGAUGAGUCCGUUAGGACGACACAG,0.375
4,ACCGGAUGUGCUUUCCGGUCUGAUGAGUCCGUUAGGACGAGACAG,0.354
5,ACCGGAUGUGCUUUCCGGUCUGAUGAGUCCGUUAGGACGAUACAG,0.361
6,ACCGGAUGUGCUUUCCGGUCUGAUGAGUCCGUUAGGACGAACCAG,0.366
7,ACCGGAUGUGCUUUCCGGUCUGAUGAGUCCGUUAGGACGAAGCAG,0.312
8,ACCGGAUGUGCUUUCCGGUCUGAUGAGUCCGUUAGGACGAAUCAG,0.371
9,ACCGGAUGUGCUUUCCGGUCUGAUGAGUCCGUUAGGACGAAACCG,0.596
10,ACCGGAUGUGCUUUCCGGUCUGAUGAGUCCGUUAGGACGAAACGG,1.44
11,ACCGGAUGUGCUUUCCGGUCUGAUGAGUCCGUUAGGACGAAACUG,0.87
12,ACCGGAUGUGCUUUCCGGUCUGAUGAGUCCGUUAGGAAGAAACAG,0.824
13,ACCGGAUGUGCUUUCCGGUCUGAUGAGUCCGUUAGGAGGAAACAG,0.67
14,ACCGGAUGUGCUUUCCGGUCUGAUGAGUCCGUUAGGAUGAAACAG,0.995
15,ACCGGAUGUGCUUUCCGGUCUGAUGAGUCCGUUAGGACGAAAAAG,0.466
16,ACCGGAUGUGCUUUCCGGUCUGAUGAGUCCGUUAGGACGAAAGAG,0.449
17,ACCGGAUGUGCUUUCCGGUCUGAUGAGUCCGUUAGGACGAAAUAG,0.598
18,ACCGGAUGUGCUUUCCGGUCUGAUGAGUCCGUUAAGACGAAACAG,0.774
19,ACCGGAUGUGCUUUCCGGUCUGAUGAGUCCGUUACGACGAAACAG,0.964

row,Variant,self-cleavage
1,ACCGGAUGUGCUUUCCGGUCUGAUGAGUCCGUUAUGACGAAACAG,0.914
2,ACCGGAUGUGCUUUCCGGUCUGAUGAGUCCGUUAGAACGAAACAG,0.765
3,ACCGGAUGUGCUUUCCGGUCUGAUGAGUCCGUUAGCACGAAACAG,0.623
4,ACCGGAUGUGCUUUCCGGUCUGAUGAGUCCGUUAGUACGAAACAG,0.618
5,ACCGGAUGUGCUUUCCGGUCUGAUGAGUCCGUUAGGACAAAACAG,0.341
6,ACCGGAUGUGCUUUCCGGUCUGAUGAGUCCGUUAGGACCAAACAG,0.464
7,ACCGGAUGUGCUUUCCGGUCUGAUGAGUCCGUUAGGACUAAACAG,0.343
8,ACCGGAUGUGCUUUCCGGUCUGAUGAGUCCGUUAGGACGAAACAA,0.698
9,ACCGGAUGUGCUUUCCGGUCUGAUGAGUCCGUUAGGACGAAACAC,0.752
10,ACCGGAUGUGCUUUCCGGUCUGAUGAGUCCGUUAGGACGAAACAU,0.912
11,ACCGGAUGUGCUUUCCGGUCUGAUGAGUCCGUGCGGACGAAACAG,0.909
12,ACCGGAUGUGCUUUCCGGUCUGAUGAGUCCGUGCGGCCGAAACAG,0.426
13,ACCGGAUGUGCUUUCCGGUCUGAUGAGUCCGUGCGGGCGAAACAG,0.588
14,ACCGGAUGUGCUUUCCGGUCUGAUGAGUCCGUGCGGUCGAAACAG,0.444
15,ACCGGAUGUGCUUUCCGGUCUGAUGAGUCCGUGCGGACGCAACAG,0.316
16,ACCGGAUGUGCUUUCCGGUCUGAUGAGUCCGUGCGGACGGAACAG,0.334
17,ACCGGAUGUGCUUUCCGGUCUGAUGAGUCCGUGCGGACGUAACAG,0.419
18,ACCGGAUGUGCUUUCCGGUCUGAUGAGUCCGUGCGGACGACACAG,0.354
19,ACCGGAUGUGCUUUCCGGUCUGAUGAGUCCGUGCGGACGAGACAG,0.367

row,Variant,self-cleavage
1,ACCGGAUGUGCUUUCCGGUCUGAUGAGUCCGUGCGGACGAUACAG,0.363
2,ACCGGAUGUGCUUUCCGGUCUGAUGAGUCCGUGCGGACGAACCAG,0.397
3,ACCGGAUGUGCUUUCCGGUCUGAUGAGUCCGUGCGGACGAAGCAG,0.254
4,ACCGGAUGUGCUUUCCGGUCUGAUGAGUCCGUGCGGACGAAUCAG,0.322
5,ACCGGAUGUGCUUUCCGGUCUGAUGAGUCCGUGCGGACGAAACCG,0.341
6,ACCGGAUGUGCUUUCCGGUCUGAUGAGUCCGUGCGGACGAAACGG,0.727
7,ACCGGAUGUGCUUUCCGGUCUGAUGAGUCCGUGCGGACGAAACUG,0.512
8,ACCGGAUGUGCUUUCCGGUCUGAUGAGUCCGUGCGGAAGAAACAG,0.472
9,ACCGGAUGUGCUUUCCGGUCUGAUGAGUCCGUGCGGAGGAAACAG,0.436
10,ACCGGAUGUGCUUUCCGGUCUGAUGAGUCCGUGCGGAUGAAACAG,0.758
11,ACCGGAUGUGCUUUCCGGUCUGAUGAGUCCGUGCGGACGAAAAAG,0.309
12,ACCGGAUGUGCUUUCCGGUCUGAUGAGUCCGUGCGGACGAAAGAG,0.327
13,ACCGGAUGUGCUUUCCGGUCUGAUGAGUCCGUGCGGACGAAAUAG,0.287
14,ACCGGAUGUGCUUUCCGGUCUGAUGAGUCCGUGCAGACGAAACAG,0.893
15,ACCGGAUGUGCUUUCCGGUCUGAUGAGUCCGUGCCGACGAAACAG,0.398
16,ACCGGAUGUGCUUUCCGGUCUGAUGAGUCCGUGCUGACGAAACAG,0.58
17,ACCGGAUGUGCUUUCCGGUCUGAUGAGUCCGUGCGAACGAAACAG,0.345
18,ACCGGAUGUGCUUUCCGGUCUGAUGAGUCCGUGCGCACGAAACAG,0.419
19,ACCGGAUGUGCUUUCCGGUCUGAUGAGUCCGUGCGUACGAAACAG,0.437
